{"source": "patent US20240132559", "about": "“COMPOSITIONS AND METHODS FOR MODULATING MYC EXPRESSION” (FLAGSHIP PIONEERING INNOVATIONS V, INC., published 2024)", "binders": {"B1": {"name": "ZF9 target site in MYC promoter (dsDNA)", "DNA 1": "AGCAAAAGAAAATGGTAGGCG", "DNA 2": "CGCCTACCATTTTCTTTTGCT"}}, "target": "ZF9-MQ1 (synthetic)", "sequence (chain, as listed by the source)": "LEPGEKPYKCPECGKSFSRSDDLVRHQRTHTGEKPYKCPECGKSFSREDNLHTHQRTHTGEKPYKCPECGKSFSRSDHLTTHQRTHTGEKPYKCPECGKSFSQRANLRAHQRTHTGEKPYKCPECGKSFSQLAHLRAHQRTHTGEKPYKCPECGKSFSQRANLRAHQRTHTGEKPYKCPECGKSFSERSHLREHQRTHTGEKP", "assay": "cell_activity; MYC mRNA down-regulation in A549 and HCC95, 72 h", "conditions": "tags: NLS, MQ1 DNA methyltransferase, HA", "data": [{"binder": "B1", "values": [{"measurement": "EC50", "result": 0.08, "unit": "ug/ml LNP/mRNA"}]}]}
